This is an account of results in US20170152308A1 (Biogen, published 2017).

In experiment [1] the target is T1, recombinant full-length His-tagged human TDP-43 (2-414) (human, UniProt Q13148 2-414).
T1 construct: Amino terminal His tag, made in E. coli, purified in 8 M urea; also called full length TDP-43; full-length TDP-43
Description: direct ELISA, coated antigen. The gist of the method: (§1)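 Plates coated overnight at 4° C with full-length TDP-43 at 5 μg/ml in carbonate buffer pH 9.6, with E. coli extract and BSA coated alongside. After blocking with 2% BSA, antibodies incubated 1 hr at room temperature and detected by HRP anti-human IgGγ colorimetric read-out. EC₅₀ from non-linear regression.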
On the technique in general: An ELISA detects its analyte on a solid surface through an enzyme-linked reagent.

Experiment [2] addresses T2, 6xHis-SUMO-TDP-43 (1-414), properly folded full length (human, UniProt Q13148 1-414).
T2 construct: Purified with KSCN and arginine, monomeric; captured on the plate by an anti-6xHis antibody; also called folded full-length TDP-43; 6xHis/SUMO tagged full length TDP-43; not shown: N-terminal 6xHis and SUMO tags from a modified pET19-b vector
Description: capture ELISA, antigen held by anti-6xHis antibody. The gist of the method:
(§2)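 Anti-6×His antibody captured 6×His-SUMO-TDP-43 (1.7 μM, 1 hr RT) in PBS with 1% BSA, 300 mM arginine and 0.1% PEG 5000, pH 7.5, avoiding direct adsorption. Three-fold antibody titrations were incubated 1 hr RT and detected with HRP anti-human IgG Fc colorimetrically. EC₅₀ from a four-parameter logistic fit.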

Experiment [3] has as its target T3, 6xHis-SUMO-TDP-43 (220-414) (human, UniProt Q13148 220-414).
T3 construct: Captured on the plate by an anti-6xHis antibody; also called 6xHis/SUMO tagged truncated TDP-43; not shown: N-terminal 6xHis and SUMO tags from a modified pET19-b vector
Put plainly: capture ELISA, antigen held by anti-6xHis antibody. The gist of the method: as §2

Experiment [4] concerns the target T4, His-huTDP-43 domain III (amino acid residues 183-273) (human).
T4 construct: Amino terminal His-tagged fragment, E. coli
T4 chain: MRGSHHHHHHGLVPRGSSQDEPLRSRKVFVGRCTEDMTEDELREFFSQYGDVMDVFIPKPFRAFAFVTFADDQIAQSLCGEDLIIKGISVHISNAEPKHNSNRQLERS
Put plainly: direct ELISA, coated antigen.

For experiment [5], the target named is T5, His-huTDP-43 domain I (amino acid residues 2-106) (human).
T5 construct: Amino terminal His-tagged fragment, E. coli; also called N-terminal domain
T5 chain: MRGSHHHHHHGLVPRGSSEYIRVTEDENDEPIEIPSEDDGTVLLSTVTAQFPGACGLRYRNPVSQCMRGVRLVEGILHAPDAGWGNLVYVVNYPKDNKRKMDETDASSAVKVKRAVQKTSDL
Put plainly: direct ELISA, TDP-43 fragments coated at 6.6 ug/ml, OD 450. As for the experimental part: (§3) Non-specific binding sites were blocked for 1 hr. at room temperature with PBST containing 2% BSA (Sigma, Buchs, Switzerland). Antibodies were incubated 1 hr. at room temperature. Binding was determined using either a donkey anti-human IgGγ-specific antibody conjugated with HRP (Jackson ImmunoResearch, USA) or a goat-anti mouse IgG (H+L)-specific secondary antibody conjugated with HRP (Jackson ImmunoResearch, USA)., followed by measurement of HRP activity in a standard colorimetric assay.

Experiment [6] addresses T5, His-huTDP-43 domain I (amino acid …). Put plainly: direct ELISA, coated antigen; direct ELISA, domain coated at 6.6 ug/ml (Example 7, FIG. 5M). The method, then: as §3
(§4) Binding of the human-derived antibodies was determined by direct ELISA.

The target in experiment [7] is T6, His-huTDP-43 domain II (amino acid residues 99-204) (human).
T6 construct: Amino terminal His-tagged fragment, E. coli
T6 chain: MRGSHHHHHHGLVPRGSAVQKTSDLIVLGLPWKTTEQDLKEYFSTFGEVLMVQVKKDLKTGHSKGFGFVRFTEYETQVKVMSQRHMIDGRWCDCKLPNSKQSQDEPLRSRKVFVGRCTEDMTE
Description: direct ELISA, TDP-43 fragments coated at 6.6 ug/ml, OD 450. As for the experimental part: as §3

For experiment [8], the target named is T4, His-huTDP-43 domain III (amino acid …). The description is as above. As for the experimental part:
as §3

Experiment [9] deals with T7, His-huTDP-43 domain IV (amino acid residues 258-414) (human, UniProt Q13148 258-414).
T7 construct: Amino terminal His-tagged fragment, E. coli, solubilized in 8 M urea; also called Glycine-rich domain
The experiment is described as above. As for the experimental part:
as §3

For experiment [10], the target named is T5, His-huTDP-43 domain I (amino acid …). Description: direct ELISA, coated antigen; direct ELISA, domain coated at 6.6 ug/ml (Example 7, FIG. 5). The method, then:
as §3, §4

For experiment [11], the target named is T6, His-huTDP-43 domain II (amino acid …). Put plainly: direct ELISA, coated antigen; direct ELISA, domain coated at 6.6 ug/ml (Example 7, FIG. 5H). As for the experimental part: as §3, §4
The target in experiment [12] is T4, His-huTDP-43 domain III (amino acid …). Put plainly: Western blot, 300 ng recombinant protein per lane, primary antibody 10 nM. As for the experimental part:
(§5) Non-specific binding sites were blocked for 1 hr. at room temperature with PBST containing 2% BSA (Sigma, Buchs, Switzerland). Blots were incubated overnight with primary antibodies (10 nM) followed by either a donkey anti-human IgGγ-specific secondary antibody conjugated with HRP (Jackson ImmunoResearch, USA) or a goat-anti mouse IgG (H+L)-specific secondary antibody conjugated with HRP (Jackson ImmunoResearch, USA). Blots were developed using ECL and ImageQuant 350 detection (GE Healthcare, Otelfingen, Switzerland).
For orientation: A western blot detects proteins with antibodies after separation by electrophoresis.

Experiment [13] deals with T7, His-huTDP-43 domain IV (amino acid …). The description is as above. The method, then:
as §5

Experiment [14] has as its target T6, His-huTDP-43 domain II (amino acid …). Put plainly: direct ELISA, coated antigen.
The target in experiment [15] is T8, TDP-43 in human FTLD-U (and ALS) patient tissue sections (human, UniProt Q13148 1-414, limits assumed).
T8 construct: Target of immunohistochemistry; the forms present are not defined; also called pathologic TDP-43; cytoplasmic, nuclear, neuritic TDP-43 in FTLD-U case tissue
Description: immunohistochemistry, FTLD-U case hippocampus.

In experiment [16] the target is T5, His-huTDP-43 domain I (amino acid …). Description: Western blot. As for the experimental part: as §5
(§6) Commercially available TDP-43 specific antibody TARDBP (M01), clone 2E2-D3 (Abnova, Taiwan) was used as positive control for human TDP-43 detection whereas, an anti-human IgG Fcγ-specific antibody was used as a negative control. Binding of the human-derived antibodies to specific TDP-43 domains was determined by Western Blot analysis.

The target of experiment [17] is T6, His-huTDP-43 domain II (amino acid …). Description: Western blot. The method, then:
as §5, §6

Experiment [18] concerns the target T4, His-huTDP-43 domain III (amino acid …). Description: Western blot. As for the experimental part: as §5, §6
Experiment [19] has as its target T7, His-huTDP-43 domain IV (amino acid …). Put plainly: Western blot. As for the experimental part: as §5, §6
The target in experiment [20] is T1, recombinant full-length His-tagged …. Description: direct ELISA, coated antigen. The gist of the method:
as §1
This is another data set of the same source.

Read-outs that look alike come from different tables or passages of the source.

As a reminder, the EC50 is the midpoint of the concentration-response curve.

T2 sequence (Q13148 whole entry): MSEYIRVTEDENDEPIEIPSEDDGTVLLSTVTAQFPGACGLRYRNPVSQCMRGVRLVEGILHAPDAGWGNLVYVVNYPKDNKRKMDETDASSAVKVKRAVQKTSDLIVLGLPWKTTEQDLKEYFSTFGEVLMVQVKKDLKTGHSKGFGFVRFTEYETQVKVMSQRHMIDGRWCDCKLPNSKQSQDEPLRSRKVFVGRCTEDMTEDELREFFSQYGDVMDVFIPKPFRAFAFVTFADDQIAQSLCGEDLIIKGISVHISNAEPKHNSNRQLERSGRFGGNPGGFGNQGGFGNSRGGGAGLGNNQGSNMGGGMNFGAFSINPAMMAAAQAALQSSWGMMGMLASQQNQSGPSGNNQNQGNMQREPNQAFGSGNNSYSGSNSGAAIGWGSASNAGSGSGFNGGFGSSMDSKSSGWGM
T8 sequence (Q13148 whole entry): as above

B1: NI-205.98H6 (antibody, human IgG1, V domains shown)
VH: EVQLLESGGALVQPGGSLRLSCAASGLTFSRHAFSWVRQAPGKGLEWVAISSGSGGNTYYAASVKGRFTISRDESKNTLYLQMNSLRVEDTALYYCAKEVLEWSLLSRYMDVWGKGTTVTVSS
VL: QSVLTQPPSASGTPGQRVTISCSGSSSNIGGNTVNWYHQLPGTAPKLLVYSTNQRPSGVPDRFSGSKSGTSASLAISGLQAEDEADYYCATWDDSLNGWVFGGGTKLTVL
notes: Human-derived
As to B1, the half-maximal effective concentration (EC50) is 2.6 nM in experiment [1], 46 nM in experiment [2] and 20 nM in [3]. Further, the figures for the binding result in experiment [4] and in [5] were “binds” and “no binding”, respectively.

B2: NI-205.8C10 (antibody, human IgG1, V domains shown)
VH: EVQLVESGGGLVNPGGSLRLSCTASGFSFSTYSMNWVRQAPGKGLEWVSLITSSGSYIYYADSVKGRFTISRDDAKNSLYLQMNSLRAEDTAVYYCANMLAAAGSHYFHYWGQGTLVTVSS
VL: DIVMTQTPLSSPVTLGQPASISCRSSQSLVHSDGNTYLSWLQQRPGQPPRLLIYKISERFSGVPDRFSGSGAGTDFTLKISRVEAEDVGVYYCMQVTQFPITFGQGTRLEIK
notes: Human-derived
With B2, the EC50 in [1] amounted to 15.6 nM. The binding result in experiment [6] is “binds”; in experiment [7], “no binding”; in experiment [8] it was “no binding”; in experiment [9] it was “no binding”.

B3: NI-205.29E11 (antibody, human IgG1, V domains shown)
VH: QVQLVQSGAEVKKPGASVKVSCKASGYIFTDYFIHWIRQAPGQGLEWMGWIKPKSGGTDYAEKFQGRVTLTRDTSITTVYMELSRLNSDDTAVYYCARLKYSVPDSDYWGQGTLVTVSS
VL: DVVMTQSPLSLPVTLGQSASISCRSSQGLVHSDGNTYLNWFHQRPGQSPRRLIYKVFNRDSGVSDRFSGSGSGSDFTLMISRVEAEDVGIYYCMQGTLWPLTFGQGTKVEIK
notes: Human-derived
Regarding B3, the binding result in experiment [10] is listed as “binds”. The EC50 in experiment [1] was 10.4 nM; in experiment [2] it was more than 100 nM; in experiment [3], more than 97 nM.

B4: NI-205.38H2 (antibody, human IgG1, V domains shown)
VH: EVQLVESGGDLVQPGGSLRLSCTASGFNLGDYWMHWVRQVPGKGLVWVSRISSDGASVSYADFVEGRFTISRGNARNTLFLELNSLRLDDTAVYYCAMGVVWGQGTLVTVSS
VL: SYELTQPPSVSVSPGQTATISCSGDALPKRYAYWYKQKSGQVPVLIIYEDNKRPSGIPARFSGSSSGTMATLTITGAQVDDEADYYCYSSDNSDTYSVFGGGTKLTVL
notes: Human-derived
For B4, the EC50 in [1] is 8.2 nM; in [2], more than 120 nM. Also, the binding result is reported as “no binding” in [3]; “binds” in [11]; “no binding” in experiment [5]; “no binding” in experiment [8]; “no binding” in experiment [9].

B5: NI-205.31C11 (antibody, human IgG1, V domains shown)
VH: QVQLVESGGGVVQPGRSLRLSCVASGFTFDNYGMHWVRQAPGKGLEWLAVISYGGDHQFYGDSVKDRFTISRDNSKNTAYLQMHSLRPDDTAVYYCATGVTPDFWGQGTLVTVSS
VL: DVVMTQSPLSLPVTLGQPASISCRSSQSLVHSDGNTYLNWFQQRPGQSPRRLIYKVSHRDSGVPDRFSGSGSGTDFTLKISRVEAEDVGVYYCLQGTHWPPFTFGQGTKLEIK
notes: Human-derived
B5: the binding result in experiment [12] is “no binding (tested: 10 nM)”; in experiment [13], “no binding (tested: 10 nM)”; in [3], “no binding”; in experiment [14], “binds”; in experiment [5], “no binding”. Also, the EC50 in experiment [1] was found to be 11 nM; in experiment [2] it was 21.1 nM.

B6: NI-205.20A1 (antibody, V domains shown)
VH: EVQLVESGGGLVQPGGSLRLSCAASGFTFSSYRMNWVRQAPGKGLEWVSYISTSSSTIYYADSVKGRFTISRDNAKNSLYLQMNSLRAEDTAVYYCARAFDYWGQGTLVTVSS
VL: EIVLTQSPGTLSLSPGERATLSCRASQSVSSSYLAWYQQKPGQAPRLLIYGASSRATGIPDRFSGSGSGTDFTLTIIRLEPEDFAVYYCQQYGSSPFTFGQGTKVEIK
notes: Human-derived
B6: the binding result in experiment [15] was “no binding (tested: 50 nM)”; in experiment [1], “no binding”; in [2], “no binding”; in experiment [16], “no binding (tested: 10 nM)”; in experiment [17], “no binding (tested: 10 nM)”; in experiment [18] it was “no binding (tested: 10 nM)”. The binding result in experiment [19] was “no binding (tested: 10 nM)”.

B7: NI-205.68G5 (antibody, human IgG1, V domains shown)
VH: QVQLVESGGGVVQPGRSLRLSCAASGFTFSSYGMHWVRQAPGKGLEWVAIIYYDSSQRYYADSVKGRFTISRDNSKNALYLQMNSLRAEDTALYYCARDLPFHYHRSASFAPSDTWGQGTLVTVSS
VL: EIVLTQSPGTLSLSPGERATLSCRASQAVTNNYLAWYQQKPGQAPRLLVYAASSRATGIPDRFYGSGSGADFTLTISRLEPEDFAVYYCQQYGTSPITFGQGTRLEIK
notes: Human-derived
In the case of B7, the EC50 in experiment [20] and in experiment [1] was more than 100 nM each time. Further, the binding result in [16], in [17], in experiment [18] and in [19] was “no binding (tested: 10 nM)” each time.
